B1: ATXN2 peptide 913-928 (Ataxin-2), 16-mer library wild type / PABPC1 PABC (PABPC1 PABC domain, residues 544-623) (parent)
chain 1: TLNPNAKEFNPRSFSQ
chain 2: PLTASMLASAPPQEQKQMLGERLFPLIQAMHPTLAGKITGMLLEIDNSELLHMLESPESLRSKVDEAVAVLQAHQAKEAA
B2: MXI1 peptide 4-19 (Max-interacting protein 1), 16-mer library wild type / SIN3A PAH2 (SIN3A PAH domain, residues 295-383) (parent)
chain 1: VKMINVQRLLEAAEFL
chain 2: SLQNNQPVEFNHAINYVNKIKNRFQGQPDIYKAFLEILHTYQKEQRNAKEAGGNYTPALTEQEVYAQVARLFKNQEDLLSEFGQFLPDA

The first assay covers variants of B1. The assay can be described thus: proteomic peptide phage display deep mutational scan (ProP-PD DMS): M13 P8 16-mer library selected against immobilised GST-tagged bait for four days (rounds), NGS of the eluted pools per day and pseudo-replica. As to conditions: with PABPC1 PABC (PABPC1 PABC domain, residues 544-623); bait immobilised on MaxiSorp plates (10 µg), library pre-cleared on GST, 2 h binding at 4 °C, five washes; one round per day, days 1-4; value from days 2 and 3; scale: average fractional NGS count over selection days 2 and 3.
For the variant chain 1 TLNPNAKEYNPRSFSQ, the screen value was 0.000112.

As to chain 1 TLNPNAKEGNPRSFSQ, the screen value was determined as 0.

For the variant chain 1 TLNPNAKEANPRSFSQ, the screen value was found to be 0.

Turning to chain 1 TLNPNAKEQNPRSFSQ, the screen value turned out to be 0.

Take chain 1 TLNPNAKEFNPRSDSQ: the screen value was found to be 0.000335.

Regarding chain 1 TLNPNAKEFNPRSSSQ, the screen value is 8.48e-05.

As for chain 1 TLNPNIKEFNPRSFSQ, the screen value came to 0.000105.

On to chain 1 TLNPNPKEFNPRSFSQ, for which the screen value was determined as 0.

With chain 1 TLNPNAKIFNPRSFSQ, the screen value is 0.000142.

In the case of chain 1 TLNPNAKDFNPRSFSQ, the screen value came to 0.

Consider chain 1 TLNPNAKLFNPRSFSQ, for which the screen value was determined as 0.

A further assay covers variants of B2. The assay is described as above. As to conditions: with SIN3A PAH2 (SIN3A PAH domain, residues 295-383); bait immobilised on MaxiSorp plates (10 µg), library pre-cleared on GST, 2 h binding at 4 °C, five washes; one round per day, days 1-4; value from days 2 and 3; keep out of graded; scale: average fractional NGS count over selection days 2 and 3.
Take chain 1 VKMINVQRLLEAAEFK: the screen value came out at 7.16e-05.

For the variant chain 1 VKMINVQRLLEAAEFR, the screen value came out at 0.000122.

As to chain 1 VKMINVQRLLEAAEFT, the screen value was determined as 3.79e-05.

For chain 1 VKMINVQRLLEAAEFM, the screen value worked out at 3.86e-05.

As to chain 1 VKMINVQRLLEAAEFA, the screen value came to 0.000201.

For chain 1 VKMINVQRLLEAAEFE, the screen value is 7.18e-05.

On to chain 1 VKMINVQRLLEAAEFI, for which the screen value turned out to be 0.00145.

Consider chain 1 VKMINVQRLLEAAEFV, for which the screen value worked out at 7.65e-05.

Regarding chain 1 VKMINVQRLLEAAEFD, the screen value amounted to 5.21e-05.

Regarding chain 1 VKMINVQRLLEAAEFG, the screen value came to 5.21e-05.

In the case of chain 1 VKMINVQRLLEAAEFQ, the screen value was 0.000343.

As to chain 1 VKMINVQRLLEAAEFN, the screen value stood at 8.06e-05.

Turning to chain 1 VKMINVQRLLEAAEFS, the screen value stood at 9.12e-05.

As for chain 1 VKMINVQRLLEAAEFH, the screen value worked out at 0.000538.

For the variant chain 1 VKMINTQRLLEAAEFL, the screen value amounted to 0.

As to chain 1 VKMINIQRLLEAAEFL, the screen value came to 0.000142.

Regarding chain 1 VKMINSQRLLEAAEFL, the screen value is 0.

Regarding chain 1 VKMINMQRLLEAAEFL, the screen value was found to be 0.000299.

With chain 1 VKMINQQRLLEAAEFL, the screen value amounted to 2.36e-05.

Regarding chain 1 VKMINYQRLLEAAEFL, the screen value is 0.000458.

chain 1 VKMINVERLLEAAEFL: the screen value came out at 0.

Consider chain 1 VKMINVGRLLEAAEFL, for which the screen value worked out at 0.

In the case of chain 1 VKMINVTRLLEAAEFL, the screen value turned out to be 0.000284.

With chain 1 VKMINVLRLLEAAEFL, the screen value is 0.000431.

For the variant chain 1 VKMINVVRLLEAAEFL, the screen value is 0.00118.

As for chain 1 VKMINVSRLLEAAEFL, the screen value is 0.000125.

As to chain 1 VKMINVWRLLEAAEFL, the screen value came out at 0.00193.

Regarding chain 1 VKMINVPRLLEAAEFL, the screen value came to 0.

As to chain 1 VKMINVMRLLEAAEFL, the screen value was found to be 0.

Regarding chain 1 VMMINVQRLLEAAEFL, the screen value turned out to be 0.000167.

In the case of chain 1 VWMINVQRLLEAAEFL, the screen value was determined as 0.00198.

Take chain 1 VHMINVQRLLEAAEFL: the screen value came to 0.00169.

On to chain 1 VIMINVQRLLEAAEFL, for which the screen value stood at 0.00027.

In the case of chain 1 VVMINVQRLLEAAEFL, the screen value came to 0.000308.

Consider chain 1 VYMINVQRLLEAAEFL, for which the screen value came to 0.00178.

Consider chain 1 VNMINVQRLLEAAEFL, for which the screen value worked out at 0.00263.

On to chain 1 VPMINVQRLLEAAEFL, for which the screen value turned out to be 0.00116.

With chain 1 VRMINVQRLLEAAEFL, the screen value was 0.000162.

Regarding chain 1 VLMINVQRLLEAAEFL, the screen value stood at 0.00133.

As for chain 1 VGMINVQRLLEAAEFL, the screen value was 0.00453.

Turning to chain 1 VSMINVQRLLEAAEFL, the screen value amounted to 0.00272.

chain 1 VQMINVQRLLEAAEFL: the screen value was found to be 0.00731.

As for chain 1 VKMINVQRLWEAAEFL, the screen value is 3.85e-05.

Consider chain 1 VKMINVQRLTEAAEFL, for which the screen value stood at 0.000112.

Take chain 1 VKMINVQRLVEAAEFL: the screen value is 0.

Take chain 1 VKMINVQRLAEAAEFL: the screen value was 0.

On to chain 1 VKMIWVQRLLEAAEFL, for which the screen value came to 0.00143.

For chain 1 VKMITVQRLLEAAEFL, the screen value was 0.000204.

As for chain 1 VKMIGVQRLLEAAEFL, the screen value was 0.000565.

With chain 1 VKMILVQRLLEAAEFL, the screen value is 0.00022.

As for chain 1 VKMIMVQRLLEAAEFL, the screen value turned out to be 0.0011.

Consider chain 1 VKMIFVQRLLEAAEFL, for which the screen value came out at 0.000135.

Turning to chain 1 VKMINVQRMLEAAEFL, the screen value worked out at 0.

Consider chain 1 VKMINVQRILEAAEFL, for which the screen value was 0.00165.

In the case of chain 1 VKMINVQRTLEAAEFL, the screen value was 0.

With chain 1 VKMINVQRGLEAAEFL, the screen value is 0.

For chain 1 VKMINVQRNLEAAEFL, the screen value turned out to be 0.

Regarding chain 1 VKAINVQRLLEAAEFL, the screen value amounted to 6.73e-05.

Take chain 1 VKTINVQRLLEAAEFL: the screen value came out at 4.82e-05.

For chain 1 VKGINVQRLLEAAEFL, the screen value was found to be 9.82e-05.

On to chain 1 VKRINVQRLLEAAEFL, for which the screen value was 0.

Regarding chain 1 VKVINVQRLLEAAEFL, the screen value was 0.000204.

For chain 1 VKDINVQRLLEAAEFL, the screen value came out at 0.000126.

With chain 1 VKNINVQRLLEAAEFL, the screen value was found to be 2.4e-05.

In the case of chain 1 VKHINVQRLLEAAEFL, the screen value turned out to be 0.000154.

Regarding chain 1 VKLINVQRLLEAAEFL, the screen value stood at 0.

Consider chain 1 VKWINVQRLLEAAEFL, for which the screen value amounted to 8.38e-05.

On to chain 1 VKMWNVQRLLEAAEFL, for which the screen value was found to be 8.32e-05.

Turning to chain 1 VKMVNVQRLLEAAEFL, the screen value is 0.00213.

Turning to chain 1 VKMTNVQRLLEAAEFL, the screen value turned out to be 0.000667.

For the variant chain 1 VKMINVQQLLEAAEFL, the screen value amounted to 0.000659.

Take chain 1 VKMINVQMLLEAAEFL: the screen value is 9.12e-05.

For chain 1 VKMINVQALLEAAEFL, the screen value amounted to 0.000466.

For the variant chain 1 VKMINVQLLLEAAEFL, the screen value was 5.66e-05.

chain 1 VKMINVQGLLEAAEFL: the screen value is 0.000403.

For the variant chain 1 VKMINVQVLLEAAEFL, the screen value was 2.88e-05.

chain 1 VKMINVQILLEAAEFL: the screen value turned out to be 0.000199.

On to chain 1 VKMINVQSLLEAAEFL, for which the screen value was 0.000529.

For chain 1 VKMINVQWLLEAAEFL, the screen value turned out to be 0.000195.

Consider chain 1 VKMINVQKLLEAAEFL, for which the screen value is 0.000316.

Regarding chain 1 VKMINVQELLEAAEFL, the screen value worked out at 0.

On to chain 1 VKMINVQNLLEAAEFL, for which the screen value was found to be 0.000431.

chain 1 VKMINVQYLLEAAEFL: the screen value turned out to be 0.000148.

These data come from paper PMC12102759.
